± gives the uncertainty stated by the source.
Test: amyloid nucleation score (Sup35N fusion, yeast selection) (log enrichment); library NNK3; higher = more nucleation; inactive = no reads after selection
In short: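 The nucleation score equals the log enrichment of output over input reads from DiMSum, centred on the mode score of non-aggregating sequences. It was computed only for sequences with 100 or more input reads. The reads came from Illumina sequencing of plasmid inserts from psi-negative yeast expressing Sup35N fused to peptides of 20 random codons, induced with 100 μM copper sulfate for 24 hours and grown 7 days at 30°C without adenine and uracil.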

Substance | amyloid nucleation score
RMRDRSGMGRTFHHGTQTTV | inactive
RMSVSSFRVVWSTIAYTKST | inactive
RMWLD | inactive
RNCNETLNIVETGNSISANV | inactive
RNGLSIGVNVGHLT | inactive
RNIRYLTLYQVTYLGRRRT | 2.25 ± 0.093
RNSIMSSDWSHSGYGS | inactive
RNSTMIYTQ | 2.24 ± 0.093
RNYNYFINCVHWLYLVSWGL | 0.605 ± 0.45
RPFNRTYHILLYQMHYVRST | inactive
RPFSPVVLMVYGKKRRTWTR | inactive
RPGTCNLLVDGHLSWFQSAT | -0.288 ± 1
RPMDDKWLIGLFARNERDVP | inactive
RPRLYFLTSNLKTQCAVHNA | inactive
RPRMPVRLWWYTKLGYFKDR | inactive
RPSSVDRLGSRDIRG | -0.413 ± 1.9
RPTGYQVTYEMRRSGG | inactive
RPVSGTNFINAN | inactive
RPVSTSYVRLRRVRFSYNLN | inactive
RQDLSHSFSDGRERQHWAKR | -0.165 ± 0.81
RQLVNCQGFVLYTREMDFEA | inactive
RQWQGNFSSVGFLEIKDALF | inactive
RQYWCFYQSWNSLG | inactive

Substance | amyloid nucleation score
RRAGNKWYVR | inactive
RRALYKLSSKESWPVDCNSV | inactive
RRFKYIGLRGTMHRLNYFGL | inactive
RRGNDRKRLWAVNLDTGNFL | inactive
RRRERGASNVDELWF | inactive
RRRLG | inactive
RRRLIR | inactive
RRSRFTFSYIIRSLCASRTF | inactive
RRSTYLIVFVG | inactive
RRTPLWSPMVRNLSYALLAG | inactive
RRVTFGGMAHSERKRYCLFT | inactive
RRYIRSVNCKQWDYKFLMYS | inactive
RSALRVM | inactive
RSANLICLSPLSIIIRDKTL | inactive
RSAPCC | inactive
RSAVISTLRYSW | -0.289 ± 0.41
RSDLCFC | inactive
RSDSWLIYSSPINMM | inactive
RSFVVNYWGFSDMLHFCRLC | inactive
RSGFAKMNAILLYFASFLL | inactive
RSGSLIGAVYRNMVVLNRMG | inactive
RSHGVLNLILCSPFLSDTGQ | 2.78 ± 0.074
RSKEMNVKASKNSMVHVSEV | inactive

Substance | amyloid nucleation score
RSLCQQYQRFSSLRKVIGLS | inactive
RSLDD | inactive
RSLTLW | inactive
RSLYWIWWDDSKSNE | inactive
RSMIWRKCF | inactive
RSMYR | inactive
RSNICQFLKDFYKRCRKLF | inactive
RSNVVAQMYQKMLLSRYCTI | 0.354 ± 0.27
RSNYRGYFK | -0.498 ± 1.4
RSPRFLRELVLGCSNCWFCG | inactive
RSQRKTFHWKFWRPSCSDQW | 0.868 ± 0.12
RSQSVQKIEATLSLLIGAPK | inactive
RSTAPGTGSDIPFEDSLRQM | inactive
RSTDTFWACCSDKTLSLWSA | inactive
RSTTTMEYWFSCAVYSPKSV | 0.682 ± 0.12
RSTWFSFFRRTAHWKKALRP | inactive
RSVSDYSSNCRAHCLVDDDT | inactive
RSVVVLT | inactive
RTAMVVDSYAKSFMSQASVL | inactive
RTECYVYKYDALDSRLGYCD | -0.18 ± 0.62
RTFPLTLRSSHSPFKPLMFL | inactive
RTHRRKSDTVMLES | inactive
RTLCRLWTLCCRCRSYALFR | inactive

Substance | amyloid nucleation score
RTMLTQFPCYWVSIHSVLVS | inactive
RTNILVGRIR | inactive
RTSVDQLEMKMRFSMSFGWL | 0.449 ± 0.64
RVEIRIIS | inactive
RVFYIVDMVFIFKRCSIRES | inactive
RVGTMLHGDWAYCHR | inactive
RVKSKDANSGGSMVCASRVL | inactive
RVLQKAPRWAMGFARW | inactive
RVLYSFQCAFLMDKETSSGR | inactive
RVMFMASVWSNCGLWSSGTS | 1.39 ± 0.15
RVRFLCIMFWDH | -0.038 ± 0.66
RVRSDGANGWGVVMNACWMS | inactive
RVSNGPIIYRRMHAAGDNLT | inactive
RVSYKICKERKF | inactive
RVYFKTGFPMVLLSKKRGSE | 0.952 ± 0.19
RVYVLLLNGQPFCRKYRL | inactive
RWDVEIPNLQICKRT | inactive
RWFLSWWIYFEVKPNDNSFF | inactive
RWLLMYLLLRSTATN | inactive
RWPLMMTFSATIVGYTVVWA | inactive
RWRFRRWVS | inactive
RWSLYLGRSRMKLRATVHSF | inactive
RWSTLIVTCSAGPSDFVCDG | inactive

Substance | amyloid nucleation score
RWWKKTIQIFKCFVKHLEWG | inactive
RYAHRSKRNTSWHVYMFKVV | inactive
RYCVS | inactive
RYLRKEDDWFIDRAVD | inactive
RYMHGYCILET | inactive
RYNGTGIKYWKTY | inactive
RYWWNYWLLPRWFFVQLGSC | inactive
RYYIMILLS | inactive
SACSYYTMHHIFGAMFHN | inactive
SAFGTQGYCKSSVFPEASPR | inactive
SAFNEFFF | inactive
SAFTFPTLWIFTNPTVHLLF | inactive
SAGAQSHSIYRAAVLSACLY | inactive
SAGWHTYRIKHPVSFVGKTI | inactive
SAIPKGKATITFPPLKSFVR | 1.02 ± 0.13
SALFMLPYALTRMVYANLLQ | -0.004 ± 0.75
SARSVIYYVPGLSTWSVTS | inactive
SASVGFGHSSWNPIIGMIRI | inactive
SAVYIDA | inactive
SAVYMVSGIGNNSHTSAFIR | 0.614 ± 0.17
SCAKQLCYHGFLMGH | inactive
SCALDLIDLQKGVTSHKEFI | inactive
SCFISSMYFASWKFRISNGV | inactive

Substance | amyloid nucleation score
SCGMERRLIIYSSSHNNILY | 0.178 ± 0.88
SCGTMTEIGVGRVLRFFVIL | inactive
SCIFPILGVFADDFTMTFTW | inactive
SCLMLSIYSSQTWKSLCGLK | 0.95 ± 0.12
SCMGFVRQANIVG | inactive
SCNQKMGHLNFCNFFWTLTV | inactive
SCRWMTMCAINSP | 0.726 ± 0.2
SCSCESCYKGVAEYDLVKDV | 1.32 ± 0.16
SCSIVDWSLMIVTYLCWLTN | inactive
SCVDLPWQMRLRHRKCQFDG | inactive
SCYCN | inactive
SDDKGVWLIMAGLCGIWSMY | 2.33 ± 0.082
SDEFGDHEGCMLAFRASAVW | inactive
SDEYTVTFHPSTPGKVSERD | inactive
SDGIYV | inactive
SDGKQQLFKENS | inactive
SDMCMVLFLLTVYFVMSGRC | 0.133 ± 0.67
SDNELMIAFESG | inactive
SDRAHGQFFRPGERLPSNPW | -0.069 ± 0.52
SDRLS | inactive
SDVKSS | inactive
SERWGIESHNRNSNMRKTGW | inactive
SEYYCYICLMVSIGFSANLL | inactive

Substance | amyloid nucleation score
SFCECFQSSKSCKIWTVWIV | inactive
SFCFFRVTLSCTC | inactive
SFCMCGGLLVRSYRSFRFVR | inactive
SFDQNRRVVIFVSPHSEGMR | inactive
SFEPRSLMYNTNRGI | inactive
SFFCN | inactive
SFFTWYTSFSKDDLWSGLTV | inactive
SFGIGSI | inactive
SFHLQVLPRSGVLACISTGF | inactive
SFKKPRPNYLPVFLVYLCNS | inactive
SFLAYYMFYM | inactive
SFLIDPTHGLYSLRFFIFCW | inactive
SFLPTV | 0.93 ± 0.23
SFLSKGRSRSSFQWYQGHRA | -0.302 ± 1.1
SFLTKSQKTNCGSLKEMCVG | inactive
SFMITFLIMRHVASFA | inactive
SFNCPNAWSVYLL | inactive
SFNHCM | inactive
SFNVDAYMNINCW | 1.02 ± 0.21
SFPWFDTYSLDVSWHISWRS | inactive
SFRDPHLTHSSVDCRTVYHI | inactive
